# In US9395368B2, “Methods, agents and peptides for inducing an immune response to matrix metalloproteinase-2 expressing tumors” (New York University, priority 2010, dated 2016):
# How the values were obtained:
# [1] = tested on: CD4+ T cells from healthy donors; assay: CD4+ T cells stimulated with autologous DCs loaded with whole MMP-2 protein, response to peptide pool; type: cell-based, human; conditions: DCs incubated with MMP-2 protein (10 μM), 12 days
# Procedure: (A) MMP-2-specific CD4^+ T cell clones were generated and characterized as described in Experimental Procedures. Clone HD9828/52 is shown as a representative example. Epitope specificities were assessed after overnight stimulation with individual peptides (2 μM). IFNγ, TNFα and IL-4 release was measured by ELISA. (B) All MMP-2-specific CD4^+ T cell clones were characterized by staining for CD4, CD8 and TCR Vβ chain expression. Clone HD9828/52 is shown as a representative example. (C) To establish HLA class-II isotype restriction, CD4^+ T cell clones were stimulated by corresponding peptides in the absence or presence of blocking mAb (10 μg/mL) for HLA-DP, HLA-DQ or HLA-DR and IFNγ release was measured by ELISA. (D) Purified CD4^+/CD25^− cells were stimulated for 12 days by autologous DCs incubated with MMP-2 protein (10 μM) and subsequently washed. MMP-2-specific CD4^+ T cells were detected by intracellular staining of IFNγ, TNFα and IL-4 after 6 hours of stimulation with MMP-2 peptide pool (2 μM). Numbers in the upper right quadrants are the percentages of each population.
# T Cell culture, stimulation and priming. Peripheral blood mononuclear cells (PBMCs) were purified from healthy donor-(HD) or cord blood donor-(CB) derived buffy coats (New York Blood Center) by Ficoll-Paque Plus (GE Healthcare) centrifugation. CD4^+/CD25^− cells were enriched (>90%) by magnetic cell sorting (Miltenyi Biotec) and primed/stimulated for 12-15 days either with irradiated (35Gy) autologous CD4^− cells or with autologous mature DCs in IMDM (GIBCO) supplemented with 1 mM HEPES (Life Technologies), 2 mM L-glutamine (Sigma), […] (Sigma) and 5% heat inactivated pooled human serum (PHS; Valley Biomedical) in the presence of rhIL-2 (10 UI/mL) and IL7 (5 ng/mL) (R&D Systems). Antigen presenting cells (CD4^− cells or DCs) were loaded either with peptides (2 μM) or with the MMP-2 protein (10 μg/mL) for 2 and 5 h, respectively. DCs were matured using the TLR3 agonist poly(I:C) at 5 μg/mL/10^6 DCs (Amersham). To generate T cell clones, we originally relied on our published methodology (Godefroy et al., 2006; Godefroy et al., 2007; the entire contents of each of which is incorporated herein by reference), involving enrichment of IFNγ-secreting cells upon short-term culture and peptide stimulation to generate MMP-2 responsive clones. Briefly, CD4^+ T cells were stimulated by CD4^− cells irradiated and pulsed with peptides for 12 days in the presence of rhIL-2 and rhIL-7. CD4^+ T cells were then restimulated with peptides for 3 hours before capturing IFNγ-secreting specific cells using a bispecific antibody coating T cells and capturing produced IFNγ. […]
# Intracellular staining T-bet and GATA-3 expression was measured on resting T cells. […]
# [2] = tested on: CD40, CD80, CD83, CD86, HLA-DR and CCR7 on DCs; assay: Expression of maturation markers by DCs; type: cell-based, human
# Procedure: Antibodies. Allophycocyanin-conjugated antibody to CCR-7 (150503) was purchased from R&D Systems. Unconjugated (10 μg/mL for blocking experiments) or phycoerythrin-conjugated antibody to OX40L (11C3.1) was from Biolegend. Blocking antibody to IL-4 (8F12; 10 μg/mL) was from Acris. Antibodies to human Vβ chains covering 70% of the repertoire (10Test Beta Mark; Beckman Coulter) were used according to the manufacturer's instructions. Fluorescein isothiocyanate-conjugated antibody to IL-12p35/IL-12p70 (B-T21) and IFNAR1 (EP899Y) were from Abcam. Phycoerythrine-conjugated antibodies to IL-12p40/IL-12p70 (C8.6), IL-10 (B-T10), CD203c (FR3-16A11) were from Miltenyi Biotec. Blocking antibody to HLA-DQ (SPVL3; 20 μg/mL) was from NeoMarkers. […]
# Dendritic cell preparation and activation. […] Immature DCs were harvested on day 5 and matured using poly(I:C) at 5 μg/mL/10^6 DCs (Amersham) Secretion of IL-12p70, TNFα, IL-1β, IL-6, IL-8 and IL-10 was assessed on both immature and mature DCs using the Human Inflammatory Cytokine Cytometric Bead Array (BD Pharmingen).
# We next evaluated whether DCs could be involved in the polarization of MMP-2-specific CD4^+ T cells.
molecule,measurement,setting,value
"active MMP-2: Purified human MMP-2 (mixture of the proenzyme (50%) and the active form (50%)) purchased from Biomol (protein, listed as Homo sapiens) MEALMARGALTGPLRALCLLGCLLSHAAAAPSPIIKFPGDVAPKTDKELAVQYLNTFYGCPKESCNLFVLKDTLKKMQKFFGLPQTGDLDQNTIETMRKPRCGNPDVANYNFFPRKPKWDKNQITYRIIGYTPDLDPETVDDAFARAFQVWSDVTPLRFSRIHDGEADIMINFGRWEHGDGYPFDGKDGLLAHAFAPGTGVGGDSHFDDDELWTLGEGQVVRVKYGNADGEYCKFPFLFNGKEYNSCTDTGRSDGFLWCSTTYNFEKDGKYGFCPHEALFTMGGNAEGQPCKFPFRFQGTSYDSCTTEGRTDGYRWCGTTEDYDRDKKYGFCPETAMSTVGGNSEGAPCVFPFTFLGNKYESCTSAGRSDGKMWCATTANYDDDRKWGFCPDQGYSLFLVAAHEFGHAMGLEHSQDPGALMAPIYTYTKNFRLSQDDIKGIQELYGASPDIDLGTGPTPTLGPVTPEICKQDIVFDGIAQIRGEIFFFKDRFIWRTVTPRDKPMGPLLVATFWPELPEKIDAVYEAPQEEKAVFFAGNEYWIYSASTLERGYPKPLTSLGLPPDVQRVDAAFNWSKNKKTYIFAGDKFWRYNEVKKKMDPGFPKLIADAWNAIPDNLDAVVDLQGGGHSYFFKGAYYLKLENQSLKSVKFGSIKSDWLGC",cells secreting IFNγ,[1]; donor HD6026,0.12%
same,cells secreting IL-4,[1]; donor HD6026,0.73%
same,cells secreting IFNγ,[1]; donor HD6028,0.17%
same,cells secreting IL-4,[1]; donor HD6028,1.99%
same,"expression levels of maturation markers CD40, CD80, CD83, CD86, HLA-DR and CCR7",[2],not significantly affected
